Where two headings read alike, the source gives them in different places.

Common to all, as to experiment: G' assay
Experiment [1] deals with T1, GST-KIAA0147 PDZ domain 4 (Homo sapiens (Human)), Q14160.
T1 chain: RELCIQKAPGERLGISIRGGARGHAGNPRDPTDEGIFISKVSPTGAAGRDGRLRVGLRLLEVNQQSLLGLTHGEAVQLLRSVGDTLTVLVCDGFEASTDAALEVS

Experiment [2] has as its target T2, GST-NeDLG PDZ domain 3 (Mus musculus (Mouse)), P70175.
T2 chain: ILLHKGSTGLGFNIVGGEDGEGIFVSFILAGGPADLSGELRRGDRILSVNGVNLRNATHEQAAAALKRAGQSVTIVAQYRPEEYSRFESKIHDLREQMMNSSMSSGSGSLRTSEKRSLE

For experiment [3], the target named is T3, GST-Shank 3 PDZ domain 1 (human (hypothetical, computer cloned)), Q9BYB0.
T3 chain: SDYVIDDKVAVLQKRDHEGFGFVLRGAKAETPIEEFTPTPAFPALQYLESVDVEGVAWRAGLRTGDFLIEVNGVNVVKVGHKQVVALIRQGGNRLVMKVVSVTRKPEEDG

For experiment [4], the target named is GST-KIAA1634 PDZ domain 1 (Homo sapiens (Human)), Q5TCQ9.
Sequence of GST-KIAA1634 PDZ domain 1 (Homo sapiens (Human)), Q5TCQ9 (Q5TCQ9 401-502): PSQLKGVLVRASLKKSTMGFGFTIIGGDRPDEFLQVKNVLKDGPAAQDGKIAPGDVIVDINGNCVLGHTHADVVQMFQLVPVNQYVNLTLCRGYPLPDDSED
Experiment [5] has as its target T4, GST-GRIP 1 PDZ domain 5 (Homo sapiens (Human)), Q9Y3R0.
T4 chain: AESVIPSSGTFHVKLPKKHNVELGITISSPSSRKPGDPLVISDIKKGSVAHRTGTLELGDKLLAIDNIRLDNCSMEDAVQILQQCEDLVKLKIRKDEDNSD

In experiment [6] the target is T5, GST-ZO-1 PDZ domain 2 (Rattus norvegicus (Rat)), A0A0G2.
T5 chain: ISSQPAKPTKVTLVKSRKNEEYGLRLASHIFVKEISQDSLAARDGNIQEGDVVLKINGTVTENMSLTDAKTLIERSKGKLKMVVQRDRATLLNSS

The target in experiment [7] is T6, GST-DVL2 PDZ domain 1 (Homo sapiens (Human)), O14641.
T6 chain: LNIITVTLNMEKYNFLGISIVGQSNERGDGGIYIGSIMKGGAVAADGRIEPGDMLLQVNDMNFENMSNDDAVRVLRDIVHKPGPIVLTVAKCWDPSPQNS

Experiment [8] has as its target GST-KIAA0316 PDZ domain 1 (Homo sapiens (Human)), Q14CM0.
Experiment [9] deals with GST-PIST PDZ domain 1 (Mus musculus (Mouse)), Q8BH60.
Experiment [10] addresses GST-Unnamed Protein PDZ domain 2 [GST: P08515].
In experiment [11] the target is T7, GST-KIAA0340 PDZ domain 1 (Homo sapiens (Human)), Q86UR5.
T7 chain: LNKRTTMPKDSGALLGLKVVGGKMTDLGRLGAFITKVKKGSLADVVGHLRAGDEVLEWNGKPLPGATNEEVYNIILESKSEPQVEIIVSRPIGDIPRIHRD

In experiment [12] the target is GST-CARD14 PDZ domain 1 (Homo sapiens (Human)), Q9BXL6.
Sequence of GST-CARD14 PDZ domain 1 (Homo sapiens (Human)), Q9BXL6 (Q9BXL6 565-664): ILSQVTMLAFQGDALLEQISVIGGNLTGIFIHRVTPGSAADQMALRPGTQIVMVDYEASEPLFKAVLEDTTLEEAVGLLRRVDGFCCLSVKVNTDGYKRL
The target in experiment [13] is T8, GST-X-11 beta PDZ domain 1 (Rattus norvegicus (Rat)), O35431.
T8 chain: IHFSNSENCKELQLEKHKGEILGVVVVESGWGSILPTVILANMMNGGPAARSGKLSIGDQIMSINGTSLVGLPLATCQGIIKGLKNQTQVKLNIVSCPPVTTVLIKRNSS

The target of experiment [14] is T9, GST-DLG5 PDZ domain 2 (Homo sapiens (Human)), Q8TDM6.
T9 chain: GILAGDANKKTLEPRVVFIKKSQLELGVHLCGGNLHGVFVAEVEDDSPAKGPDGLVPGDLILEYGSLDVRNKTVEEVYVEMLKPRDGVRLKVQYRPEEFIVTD

The target of experiment [15] is T10, GST-Atrophin-1 Interacting Protein PDZ domain 6 (Rattus norvegicus (Rat)), O88382.
T10 chain: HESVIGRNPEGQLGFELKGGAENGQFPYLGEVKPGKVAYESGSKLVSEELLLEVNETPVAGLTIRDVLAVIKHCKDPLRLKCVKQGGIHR

The target of experiment [16] is T11, GST-SITAC-18 PDZ domain 1 (Homo sapiens (Human)), Q9H190.
T11 chain: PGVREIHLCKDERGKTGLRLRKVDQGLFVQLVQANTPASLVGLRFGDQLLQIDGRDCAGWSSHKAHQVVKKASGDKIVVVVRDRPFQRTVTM

In experiment [17] the target is GST-KIAA1222 PDZ domain 1 (Rattus norvegicus (Rat)), O35867.
Sequence of GST-KIAA1222 PDZ domain 1 (Rattus norvegicus (Rat)), O35867 (O35867 499-598, tags or fused parts left off): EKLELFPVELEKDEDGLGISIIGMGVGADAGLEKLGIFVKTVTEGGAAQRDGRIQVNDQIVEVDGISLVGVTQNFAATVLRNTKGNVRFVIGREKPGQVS
In experiment [18] the target is T12, GST-MUPP1 PDZ domain 3 (Homo sapiens (Human)), O75970.
T12 chain: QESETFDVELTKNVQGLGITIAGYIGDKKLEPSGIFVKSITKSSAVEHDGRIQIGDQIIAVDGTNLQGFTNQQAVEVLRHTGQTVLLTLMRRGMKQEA

Experiment [19] addresses GST-DLG2 PDZ domain 1 (Homo sapiens (Human)), Q15700.
The target of experiment [20] is T13, GST-Connector Enhancer PDZ domain 1 (Homo sapiens (Human)), Q969H4.
T13 chain: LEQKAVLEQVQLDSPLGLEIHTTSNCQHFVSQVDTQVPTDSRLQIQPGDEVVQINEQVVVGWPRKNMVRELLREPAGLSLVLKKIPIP

Experiment [21] addresses T14, GST-PTN-4 PDZ domain 1 (Homo sapiens (Human)), P29074.
T14 chain: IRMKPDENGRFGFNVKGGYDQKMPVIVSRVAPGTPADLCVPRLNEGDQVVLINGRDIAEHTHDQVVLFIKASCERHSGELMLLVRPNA

For experiment [22], the target named is T15, GST-Syntrophin 1 alpha PDZ domain 1 (Homo sapiens (Human)), Q13424.
T15 chain: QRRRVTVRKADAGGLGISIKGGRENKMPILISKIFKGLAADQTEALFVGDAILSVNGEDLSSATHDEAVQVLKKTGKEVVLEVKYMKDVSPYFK

Setting [23] is: remark: other sources report otherwise.
Note: key of the grades not given here.

Sequence of GST-KIAA0316 PDZ domain 1 (Homo sapiens (Human)), Q14CM0 (Q14CM0 72-159): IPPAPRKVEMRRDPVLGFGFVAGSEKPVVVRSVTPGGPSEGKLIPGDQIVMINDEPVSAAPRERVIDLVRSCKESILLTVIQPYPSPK
Sequence of GST-Unnamed Protein PDZ domain 2 [GST: P08515] (P08515 whole entry, the tested form may be a part): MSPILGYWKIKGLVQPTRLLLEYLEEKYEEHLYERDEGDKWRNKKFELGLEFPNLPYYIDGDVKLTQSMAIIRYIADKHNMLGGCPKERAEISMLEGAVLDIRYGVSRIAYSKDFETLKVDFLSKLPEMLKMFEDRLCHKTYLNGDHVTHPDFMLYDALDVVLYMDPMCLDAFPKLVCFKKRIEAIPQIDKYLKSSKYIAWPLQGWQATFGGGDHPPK

Turning to PYSELNYETSHYPASPDSWV (modifications not checked) [catenin - delta 2], the Classification in experiment [1] and in [2] was 1 A450 class in each case.
Turning to PIPAGGCTFSGIFPTLTSPL (modifications not checked) [KIA 1481], the Classification in experiment [3] is 3 A450 class; in experiment [4], 2 A450 class.
For the molecule ELLQFCRTPNPALKNGQYWV (modifications not checked) [CSPG4 (chondroitin sulfae proteoglycan 4, melanoma-associated)], the Classification in experiment [5] was found to be 1 A450 class; in [6], 4 A450 class; in [4], 5 A450 class; in [7], 5 A450 class.
On to AWDDSARAAGGQGLHVTAL (modifications not checked) [LPAP], for which the Classification in [8] (setting [23]) is 1 A450 class; in [3], 3 A450 class; in experiment [9], 1 A450 class; in [10] it was 3 A450 class.
Regarding HDFRRAFKKILARGDRKRIV (modifications not checked) [alpha-2A Adrenergic receptor], the Classification in [11] is 1 A450 class; in experiment [6], 4 A450 class; in [12], 1 A450 class; in [13] it was 2 A450 class; in experiment [14], 1 A450 class; in experiment [10], 1 A450 class. Also, the results for the Classification in experiment [15] and in experiment [16] were 1 A450 class and 4 A450 class, respectively.
For KTMPAAMYRLLTAQEQPVYI (modifications not checked) [MINT-1], the Classification in experiment [17] worked out at 1 A450 class; in experiment [18], 3 A450 class; in [7] it was 2 A450 class.
With QISPGGLEPPSEKHFRETEV (modifications not checked) [TAX], the Classification in [19] came to 2 A450 class; in [20] (setting [23]) it was 1 A450 class; in experiment [21], 2 A450 class; in experiment [1], 1 A450 class; in experiment [4], 5 A450 class; in experiment [2], 5 A450 class.
For the molecule VGTLLLERVIFPSVKIATLV (modifications not checked) [AdenoE4 typ9], the Classification in [17] came out at 1 A450 class; in experiment [20], 3 A450 class; in [9], 1 A450 class; in [4], 5 A450 class.
Consider VPGALDYAAFSSALYGESDL (modifications not checked) [a-actinin 2], for which the Classification in experiment [8] came to 1 A450 class; in experiment [22], 3 A450 class.
Consider ILNSIQVMRAQMNQIQSVEV (modifications not checked) [ephrin B2], for which the Classification in [11] was determined as 2 A450 class; in experiment [5], 1 A450 class; in experiment [6], 2 A450 class; in experiment [12], 1 A450 class; in [13] it was 2 A450 class; in experiment [14], 1 A450 class. The Classification is 2 A450 class in experiment [1]; 1 A450 class in [18]; 1 A450 class in experiment [15]; 3 A450 class in experiment [16]; 1 A450 class in experiment [2].
Regarding TQGFPGPATWRRISSLESEV (modifications not checked) [NMDA Glutamate Receptor 2C (cysteine-free)], the Classification came out at 4 A450 class in experiment [19]; 2 A450 class in experiment [21]; 5 A450 class in experiment [4]; 4 A450 class in experiment [22]; 1 A450 class in experiment [2].

The values above are taken from patent US20050282743A1, “Molecular interactions in cells” (Arbor Vita Corporation, priority 2001, published 2005).
